Measurements taken from US20100184658A1 (published 2010).

What was measured:
Assay in all cases: cell-based or functional assay
IKBKB (IKK beta) IKK2 = biological target: T1, IKBKB (IKK beta) IKK2 (human (printed as (h)), UniProt O14920 1-756, limits assumed)
T1 sequence (looked up): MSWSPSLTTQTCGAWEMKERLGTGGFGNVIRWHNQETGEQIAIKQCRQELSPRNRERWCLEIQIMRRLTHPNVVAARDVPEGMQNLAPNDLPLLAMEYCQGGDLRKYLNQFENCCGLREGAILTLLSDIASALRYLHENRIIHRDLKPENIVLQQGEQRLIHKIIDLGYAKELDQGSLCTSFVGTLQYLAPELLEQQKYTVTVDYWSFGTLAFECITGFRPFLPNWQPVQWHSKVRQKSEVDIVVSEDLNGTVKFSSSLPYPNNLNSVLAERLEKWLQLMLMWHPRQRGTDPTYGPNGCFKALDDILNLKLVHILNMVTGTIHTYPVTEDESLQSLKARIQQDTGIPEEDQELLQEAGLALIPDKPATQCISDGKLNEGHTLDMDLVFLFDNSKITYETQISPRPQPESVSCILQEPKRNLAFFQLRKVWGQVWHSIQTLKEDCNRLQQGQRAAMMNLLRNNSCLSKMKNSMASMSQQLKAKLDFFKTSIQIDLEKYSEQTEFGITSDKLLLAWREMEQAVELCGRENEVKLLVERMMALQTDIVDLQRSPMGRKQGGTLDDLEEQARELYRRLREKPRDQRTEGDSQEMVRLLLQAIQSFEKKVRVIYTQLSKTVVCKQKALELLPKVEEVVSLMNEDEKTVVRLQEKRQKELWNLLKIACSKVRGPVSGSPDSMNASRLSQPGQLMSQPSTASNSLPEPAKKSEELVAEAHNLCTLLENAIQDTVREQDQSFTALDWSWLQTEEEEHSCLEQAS

CAMK2D (CaMKII delta) = CAMK2D (CaMKII delta) (UniProt Q13557 1-499, limits assumed)
CAMK2D (CaMKII delta), sequence (Q13557 whole entry, stated change not applied): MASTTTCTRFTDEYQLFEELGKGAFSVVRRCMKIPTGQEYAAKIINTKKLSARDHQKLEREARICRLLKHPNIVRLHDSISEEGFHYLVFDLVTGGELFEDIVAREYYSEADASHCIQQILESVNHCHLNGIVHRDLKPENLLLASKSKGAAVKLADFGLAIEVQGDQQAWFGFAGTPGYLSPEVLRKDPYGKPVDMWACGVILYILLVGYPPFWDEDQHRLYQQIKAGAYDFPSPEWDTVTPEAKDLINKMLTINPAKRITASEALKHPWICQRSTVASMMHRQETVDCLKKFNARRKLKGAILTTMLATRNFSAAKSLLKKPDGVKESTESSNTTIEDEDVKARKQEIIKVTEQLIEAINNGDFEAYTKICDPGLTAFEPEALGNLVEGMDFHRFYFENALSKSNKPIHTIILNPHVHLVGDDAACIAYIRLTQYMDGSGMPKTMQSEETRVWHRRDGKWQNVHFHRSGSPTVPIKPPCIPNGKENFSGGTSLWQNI

[1] = biological target: MAP3K9 (MLK1) Mitogen-activated protein kinase kinase kinase 9 (UniProt P80192 132-413, limits assumed)
MAP3K9 (MLK1) Mitogen-activated protein kinase kinase kinase 9, sequence (P80192 132-413 limits assumed): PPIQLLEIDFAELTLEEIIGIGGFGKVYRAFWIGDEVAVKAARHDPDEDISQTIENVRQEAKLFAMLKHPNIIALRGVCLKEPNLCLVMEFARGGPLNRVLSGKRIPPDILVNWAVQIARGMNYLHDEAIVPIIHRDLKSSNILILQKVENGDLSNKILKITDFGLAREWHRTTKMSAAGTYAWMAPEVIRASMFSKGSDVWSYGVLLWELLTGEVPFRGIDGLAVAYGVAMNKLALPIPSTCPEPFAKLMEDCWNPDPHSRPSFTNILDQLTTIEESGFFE

ROCK2 = ROCK2 (UniProt O75116 5-554, limits assumed)
ROCK2, sequence (O75116 5-554 limits assumed): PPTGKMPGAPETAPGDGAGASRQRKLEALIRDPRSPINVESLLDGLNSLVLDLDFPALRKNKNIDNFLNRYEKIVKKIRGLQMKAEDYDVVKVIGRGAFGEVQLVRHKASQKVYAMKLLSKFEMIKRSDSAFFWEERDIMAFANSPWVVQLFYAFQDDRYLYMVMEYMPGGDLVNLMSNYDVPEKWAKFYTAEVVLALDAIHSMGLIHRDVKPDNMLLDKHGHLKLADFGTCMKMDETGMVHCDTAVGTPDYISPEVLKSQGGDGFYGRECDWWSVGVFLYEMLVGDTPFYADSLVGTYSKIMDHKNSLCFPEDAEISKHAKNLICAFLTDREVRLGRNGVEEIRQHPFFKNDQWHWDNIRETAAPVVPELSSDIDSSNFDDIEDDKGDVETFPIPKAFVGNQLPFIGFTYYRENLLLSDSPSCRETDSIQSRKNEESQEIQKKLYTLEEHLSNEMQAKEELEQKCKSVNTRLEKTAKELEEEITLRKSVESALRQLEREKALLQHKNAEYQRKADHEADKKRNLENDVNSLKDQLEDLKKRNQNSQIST

PRKCZ (PKC zeta) = biological target: T2, PRKCZ (PKC zeta) (human (printed as (h)), UniProt Q05513 1-592, limits assumed)
T2 sequence (looked up): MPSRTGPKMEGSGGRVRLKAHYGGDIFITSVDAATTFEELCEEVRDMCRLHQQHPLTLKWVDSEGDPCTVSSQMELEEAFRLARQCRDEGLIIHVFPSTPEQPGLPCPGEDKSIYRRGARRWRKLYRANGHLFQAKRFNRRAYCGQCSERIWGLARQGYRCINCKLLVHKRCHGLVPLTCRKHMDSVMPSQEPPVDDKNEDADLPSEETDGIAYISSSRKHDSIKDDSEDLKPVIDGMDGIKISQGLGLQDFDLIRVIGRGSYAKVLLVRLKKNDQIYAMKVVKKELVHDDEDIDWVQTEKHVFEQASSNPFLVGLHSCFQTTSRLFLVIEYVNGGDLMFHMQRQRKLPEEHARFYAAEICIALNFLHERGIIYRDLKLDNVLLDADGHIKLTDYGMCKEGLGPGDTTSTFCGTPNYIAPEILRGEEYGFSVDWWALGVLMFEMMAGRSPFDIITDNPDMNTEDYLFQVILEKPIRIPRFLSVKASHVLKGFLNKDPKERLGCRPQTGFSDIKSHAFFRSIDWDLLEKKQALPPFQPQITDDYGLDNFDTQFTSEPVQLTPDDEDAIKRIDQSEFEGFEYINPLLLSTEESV

[2] = biological target: PRKCB1 (PKC beta I) Protein kinase C, beta 1 (UniProt P05771 1-671)
PRKCB1 (PKC beta I) Protein kinase C, beta 1, sequence (P05771 whole entry): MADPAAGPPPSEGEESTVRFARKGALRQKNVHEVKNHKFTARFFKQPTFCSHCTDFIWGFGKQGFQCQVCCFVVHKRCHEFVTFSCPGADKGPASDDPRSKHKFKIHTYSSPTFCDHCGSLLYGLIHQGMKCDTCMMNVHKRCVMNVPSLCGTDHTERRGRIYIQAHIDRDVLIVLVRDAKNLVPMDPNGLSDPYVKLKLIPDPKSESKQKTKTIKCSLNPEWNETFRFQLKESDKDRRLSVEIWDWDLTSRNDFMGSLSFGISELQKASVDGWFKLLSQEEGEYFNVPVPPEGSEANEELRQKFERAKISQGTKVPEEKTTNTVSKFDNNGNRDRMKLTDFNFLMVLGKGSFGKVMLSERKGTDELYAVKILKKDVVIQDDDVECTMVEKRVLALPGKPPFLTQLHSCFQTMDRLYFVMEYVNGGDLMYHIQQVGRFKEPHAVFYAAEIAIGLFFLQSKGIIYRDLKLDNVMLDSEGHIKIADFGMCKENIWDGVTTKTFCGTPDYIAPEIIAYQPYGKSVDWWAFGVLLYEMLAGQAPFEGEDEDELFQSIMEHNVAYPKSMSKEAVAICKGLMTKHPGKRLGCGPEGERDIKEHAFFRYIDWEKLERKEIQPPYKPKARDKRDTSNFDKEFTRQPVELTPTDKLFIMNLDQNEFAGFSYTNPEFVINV

[3] = biological target: T3, CAMK4 (CaMKIV) Calcium/calmodulin-dependent protein kinase IV (UniProt Q16566 1-473, limits assumed)
T3 sequence (looked up): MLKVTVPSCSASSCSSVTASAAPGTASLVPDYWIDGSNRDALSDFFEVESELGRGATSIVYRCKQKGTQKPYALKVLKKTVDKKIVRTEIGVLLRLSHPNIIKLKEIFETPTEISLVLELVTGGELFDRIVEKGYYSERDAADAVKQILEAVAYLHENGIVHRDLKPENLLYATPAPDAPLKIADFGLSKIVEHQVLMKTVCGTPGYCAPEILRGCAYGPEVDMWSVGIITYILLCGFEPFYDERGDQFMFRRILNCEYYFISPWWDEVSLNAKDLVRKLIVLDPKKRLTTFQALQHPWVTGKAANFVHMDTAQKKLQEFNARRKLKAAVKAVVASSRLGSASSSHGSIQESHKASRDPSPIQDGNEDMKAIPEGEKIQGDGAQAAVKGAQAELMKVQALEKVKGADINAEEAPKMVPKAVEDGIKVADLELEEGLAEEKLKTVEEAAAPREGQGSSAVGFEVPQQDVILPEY

CSK = CSK (UniProt P41240 1-450, limits assumed)
CSK, sequence (P41240 whole entry): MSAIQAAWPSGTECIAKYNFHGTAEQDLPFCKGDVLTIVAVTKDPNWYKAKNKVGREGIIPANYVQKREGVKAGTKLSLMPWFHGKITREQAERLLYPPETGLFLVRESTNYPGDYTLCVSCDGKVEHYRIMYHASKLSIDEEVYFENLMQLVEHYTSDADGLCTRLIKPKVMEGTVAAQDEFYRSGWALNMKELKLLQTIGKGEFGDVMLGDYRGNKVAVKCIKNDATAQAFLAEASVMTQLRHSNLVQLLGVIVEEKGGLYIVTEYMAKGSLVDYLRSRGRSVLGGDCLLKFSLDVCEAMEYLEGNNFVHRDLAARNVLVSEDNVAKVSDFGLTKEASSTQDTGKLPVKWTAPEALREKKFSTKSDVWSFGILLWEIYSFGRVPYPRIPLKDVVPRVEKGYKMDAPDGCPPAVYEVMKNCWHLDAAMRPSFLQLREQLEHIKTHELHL

[4] = biological target: STK24 (MST3) Serine/threonine kinase 24 (STE20 homolog, yeast) (UniProt Q9Y6E0 1-443, limits assumed)
STK24 (MST3) Serine/threonine kinase 24 (STE20 homolog, yeast), sequence (Q9Y6E0 whole entry): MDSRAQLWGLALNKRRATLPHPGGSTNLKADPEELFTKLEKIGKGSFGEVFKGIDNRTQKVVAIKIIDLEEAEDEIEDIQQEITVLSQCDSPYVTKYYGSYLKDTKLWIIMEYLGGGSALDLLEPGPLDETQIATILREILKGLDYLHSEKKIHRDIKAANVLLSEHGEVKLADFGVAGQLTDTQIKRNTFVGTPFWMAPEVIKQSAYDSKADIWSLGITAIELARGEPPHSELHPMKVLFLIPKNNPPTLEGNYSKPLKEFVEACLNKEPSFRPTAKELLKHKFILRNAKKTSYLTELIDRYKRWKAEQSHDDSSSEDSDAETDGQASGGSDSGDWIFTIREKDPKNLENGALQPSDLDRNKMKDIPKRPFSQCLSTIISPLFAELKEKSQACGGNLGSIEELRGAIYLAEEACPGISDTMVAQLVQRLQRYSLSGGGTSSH
Further: test concentration or dose not given here.

B1: D3 peptide (peptide)
peptide: SGRPPMIVWFNRPFLIAVSHTHGQTILFMAKVINPVGA
% Inhibition mean (IKBKB (IKK beta) IKK2): 41% | % Inhibition mean (CAMK2D (CaMKII delta)): 72.5% | % Inhibition mean [1]: 101% | % Inhibition mean (ROCK2): 66.7% | % Inhibition mean (PRKCZ (PKC zeta)): 74.4% | % Inhibition mean [2]: 88% | % Inhibition mean [3]: 99.6% | % Inhibition mean (CSK): 55.2% | % Inhibition mean [4]: 98.6%
